Experimental findings from US20260226440 are described below.

Holding throughout (assay): cell_activity
Data set [1] deals with Type V nuclease-mutMMLV RT fusion. The conditions noted are these: HEK293T.
Data set [2] relates to T1, Type V CRISPR nuclease (8218).
T1 sequence: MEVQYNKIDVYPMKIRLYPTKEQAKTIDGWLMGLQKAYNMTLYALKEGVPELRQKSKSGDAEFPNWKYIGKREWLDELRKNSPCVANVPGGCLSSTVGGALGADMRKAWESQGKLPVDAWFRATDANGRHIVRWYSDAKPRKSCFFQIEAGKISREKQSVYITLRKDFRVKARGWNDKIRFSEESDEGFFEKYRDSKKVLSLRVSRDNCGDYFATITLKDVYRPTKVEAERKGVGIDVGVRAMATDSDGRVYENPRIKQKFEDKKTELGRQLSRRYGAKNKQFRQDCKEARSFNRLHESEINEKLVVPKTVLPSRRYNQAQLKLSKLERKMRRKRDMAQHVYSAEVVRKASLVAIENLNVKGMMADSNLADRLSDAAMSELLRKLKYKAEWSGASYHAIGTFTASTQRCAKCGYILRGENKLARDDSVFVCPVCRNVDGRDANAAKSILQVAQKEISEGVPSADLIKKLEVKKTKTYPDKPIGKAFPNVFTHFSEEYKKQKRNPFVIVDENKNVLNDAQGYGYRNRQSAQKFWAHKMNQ
To be noted: indels in HEK293T; PAM 5'-TTTC-3'; reference.

In data set [3] the test system is nuclease-RT fusion A138R A138R (numbering of SEQ ID NO: 1). To be noted: HEK293T; PAM TTTC; average ratio, EMX1 and VEGFA tested; RT editing ratio 1.266.
Data set [4] addresses nuclease-RT fusion D137G D137G (numbering of SEQ ID NO: 1) (UniProt P03355). To be noted: HEK293T; PAM TTTC; average ratio, EMX1 and VEGFA tested; RT editing ratio 1.665.
In data set [5] the test system is nuclease-RT fusion E328R E328R (numbering of SEQ ID NO: 1). To be noted: HEK293T; PAM TTTC; loss of activity; average ratio, EMX1 and VEGFA tested; RT editing ratio 0.173.
In data set [6] the target is nuclease-RT fusion N127R N127R (numbering of SEQ ID NO: 1) (UniProt P03355). To be noted: HEK293T; PAM TTTC; average ratio, EMX1 and VEGFA tested; RT editing ratio 1.507.
For data set [7], the system named is nuclease-RT fusion R250G R250G (numbering of SEQ ID NO: 1). The conditions noted are these: HEK293T; PAM TTTC; loss of activity; average ratio, EMX1 and VEGFA tested; RT editing ratio 0.022.
Data set [8] has as its target nuclease-RT fusion S205G S205G (numbering of SEQ ID NO: 1) (UniProt P03355). To be noted: HEK293T; PAM TTTC; average ratio, EMX1 and VEGFA tested; RT editing ratio 1.654.
In data set [9] the test system is nuclease-RT fusion D137R D137R (numbering of SEQ ID NO: 1). The conditions noted are these: HEK293T; PAM TTTC; average ratio, EMX1 and VEGFA tested; RT editing ratio 1.392.
Data set [10] addresses nuclease-RT fusion S136G S136G (numbering of SEQ ID NO: 1) (UniProt P03355). The conditions noted are these: HEK293T; PAM TTTC; average ratio, EMX1 and VEGFA tested; RT editing ratio 1.907.
The target in data set [11] is nuclease-RT fusion D237G D237G (numbering of SEQ ID NO: 1) (UniProt P03355). The conditions noted are these: HEK293T; PAM TTTC; loss of activity; average ratio, EMX1 and VEGFA tested; RT editing ratio 0.038.
The target of data set [12] is nuclease-RT fusion D125G D125G (numbering of SEQ ID NO: 1) (UniProt P03355). The conditions noted are these: HEK293T; PAM TTTC; average ratio, EMX1 and VEGFA tested; RT editing ratio 1.436.

For “CACCGCCGUCAUCAACAUUGCCUUUCUGUUGCCCAGUAAACUUAUCAUACGGAGCCAGGCUAUAUAAUUAGCUACUUCUCGUGAGGUGCAGCCACGAGGUGCGAAAGUACGCCGCAAUGUGCGGAAUUCGCACGAAAGUUGGCGGAUUUCUUCGGAAAUCGAGCCAAUAACCAUCUCCAUAAAUAUGUGUGGUGAUGGACUGCAAGUGUUGCCCUCAUAACUUAUCUUUUUUGCG / TGTTGCCCTCATAACTTATC / GATAAGTTATGAGGGCAACA”, the activity in data set [1] (PAM TTTC, precise editing 0.249%) came to 14.6 % indel.

As for “CACCGUGUCAGGCCUGCUAGUCAGCCACAGUUUGGGGAAAGCUGUGCAGCCUGUAACCCCCCCAGGAGAAGCUGGGAAAAACCGUCAUCAACAUUGCCUUUCUGUUGCCCAGUAAACUUAUCAUACGGAGCCAGGCUAUAUAAUUAGCUACUUCUCCGUGAGGUGCAGCCACGAGGUGCGAAAGUACGCCGCAAUGUGCGGAAUUCGCACGAAAGUUGGCGGAUUUCUUCGGAAAUCGAGCCAAUAAGCAUAUCCAUAUUAUCUGCGGAUGGAUGUGCACUGCAAGUGUUGCCCUCAUAACUUAUCUUUUUUGCG / TGTTGCCCTCATAACTTATC / GATAAGTTATGAGGGCAACA [sgRNA_C16_xrRNA_EMX1_TTTC editing template RNA ; EMX1 target]”, the activity in data set [1] (PAM TTTC, precise editing 1.678%) worked out at 10.7 % indel.

Take “CACCGUGUCAGGCCUGCUAGUCAGCCACAGUUUGGGGAAAGCUGUGCAGCCUGUAACCCCCCCAGGAGAAGCUGGGAAAAAUGAGGAUGUAGUCACGGAUUCAUUAUCAGGUUCUGGCUGCAGGGUGCCUGAUCUGUGCCAGGGUUAAGCAUGCUGGUGAGGUGCAGCCACGAGGUGCGAAAGUACGCCGCAAUGUGCGGAAUUCGCACGAAAGUUGGCGGAUUUCUUCGGAAAUCGAGCCAAUAACCAUCUCCAUAAAUAUGUGUGGUGAUGGACUGCAAGAUUAUCAGCAAGUGGCUGCAUUUUUUGCG / ATTATCAGCAAGTGGCTGCA / TGCAGCCACTTGCTGATAAT”: the activity in [1] (PAM ATTC (inferred from RTT), precise editing 1.993%) came out at 7.64 % indel.

On to “GUGAGGUGCAGCCACGAGGUGCGAAUAGGAAGUACGCAGCAAUGUGCUGAAUCGUUCGCACGAAAAUUGGCAUUUUUGAAAACCAAAGCCAAUAAUCAUAUCCAUAAAUAUGUGUGGUUAUGAACUGCAAGUGUUGCCCUCAUAACUUAUC / TGTTGCCCTCATAACTTATC / GATAAGTTATGAGGGCAACA [parent sgRNA EMX1 ; EMX1 target]”, for which the activity (relative to parent) in data set [2] amounted to 1.

“UGUCAGGCCUGCUAGUCAGCCACAGUUUGGGGAAAGCUGUGCAGCCUGUAACCCCCCCAGGAGAAGCUGGGAAAAACCGUCAUCAACAUUGCCUUUCUGUUGCCCAGUAAACUUAUCAUACGGAGCCAGGCUAUAUAAUUAGCUACUUCUCCGUGAGGUGCAGCCACGAGGUGCGAAAGUACGCAGCAAUGUGCUGAAUUCGCACGAAAGUUGGCGGAUUUCUUCGGAAAUCGAGCCAAUAAUCAUAUCCAUAUUAUCUGCGGAUGGAUGUGAACUGCAAGUGUUGCCCUCAUAACUUAUC / TGTTGCCCTCATAACTTATC / GATAAGTTATGAGGGCAACA [Table 7 editing template RNA 1 (EMX1) ; EMX1 target]”: the indel ratio to WT (indel ratio to WT) in data set [3] turned out to be 2.77; in data set [4] it was 2.8; in data set [5] it was 0.0299; in data set [6] it was 2.7; in data set [7], 0.00013; in data set [8], 2.53. For the same sequence, the indel ratio to WT (indel ratio to WT) in data set [9] was 2.13; in [10] it was 3.18; in data set [11], 0.00343; in data set [12] it was 2.83.
